The values below come from US10240180B2, “Multiplexed screening of enzyme activities using nanostructure-initiator mass spectrometry” (The Regents of the University of California, priority 2011, dated 2019).

Common to all, as to type: biochemical
Data set [1] is described as follows: Separate analysis of β-xylosidase activity (NIMS). To be noted: XB-F17 substrate, 1 h. As to the method:
The separate characterization of β-glucosidase and β-xylosidase activity was carried out in reaction volumes of 20-50 μL, by mixing 0.1 mM cellobiose with 8 μg of NS50010 in 50 mM sodium acetate buffer (pH 4.8), or 0.1 mM xylobiose with 0.13 μg (in […]) or 0.33 μg (in 50 μL) of 1,4-β-D-xylosidase in 50 mM potassium phosphate buffer (pH 7.5) with 1 mg/mL BSA. For the competition studies with cellobiose, samples additionally contained 10, 25, or 50 mM of unlabeled cellobiose (Sigma-Aldrich; St. Louis, Mo.). Other buffers used for the determination of the pH optima were McIlvaine's citrate/phosphate buffer (pH 2.6 and 6.0), 50 mM Tris buffer (pH 9.0) for NS50010, and 50 mM potassium phosphate buffer (pH 6.0), 50 mM Tris buffer (pH 9.0), 50 mM sodium borate buffer (pH 11.0), all with 1 mg/mL BSA for the β-xylosidase. Samples were incubated for 1 h at 35° C. (β-xylosidase) or 50° C. […]
In FIG. 4a, the determined temperature optima for the used enzymes were 50-60° C. for β-glucosidase (black) and 35° C. for β-xylosidase (gray). In FIG. 4b, the determined pH optima were around pH 4.8 for β-glucosidase (black) and around pH 7.5 for β-xylosidase (gray). […]
(§1) In each case 0.5-1 μL per quenched reaction sample was spotted onto the NIMS surface and removed after an incubation of ˜30 s. […] Enzyme activities were determined by forming product-to-substrate ratios.

Data set [2] can be described thus: Multiplexed β-glucosidase/β-xylosidase assay with known enzymes, cellobiose substrate. To be noted: equal amounts CB-F17 and XB-F17 (0.1 mM each), 1 h.
Description: (§2) It can be difficult to discriminate between several products in simultaneous reactions using conventional spectroscopic methods since these reactions typically yield the same outputs and there are only a few unique absorption or emission patterns that can be resolved separately. In contrast, mass spectrometry can resolve thousands of ions and therefore we have discovered that it is well-suited for the parallel detection of large numbers of reaction products where the substrates and occurring products differ in mass. This is the case, for example, when using pentose and hexose-based substrates at the same time. The hydrolysis of polysaccharides with identical masses (e.g. cellobiose and maltose) can even be analyzed in the same run by using different chemical structures in the linker or perfluorinated tags of varying length. Thus, potentially dozens of enzymatic conversions can be tested simultaneously using this method. Here both β-glucosidase and β-xylosidase activities were detected simultaneously utilizing a substrate cocktail comprised of equal amounts of CB-F17 and XB-F17. In the non-enzyme control only signals for cellobiose and xylobiose were detectable (FIG. 5a). […]
as §1

The nature of data set [3]: Multiplexed β-glucosidase/β-xylosidase assay with known enzymes, xylobiose substrate. As to conditions: equal amounts CB-F17 and XB-F17 (0.1 mM each), 1 h.
Description: as §2, §1

B1: β-xylosidase: 1,4-β-D-xylosidase from Bacillus pumilus purchased from Megazyme (protein, UniProt P07129 1-535, looked up)
Beta-xylosidase: MKITNPVLKGFNPDPSICRAGEDYYMAVSTFEWFPGVQIYHSKDLIHWRLAARPLQKTSQLDMKGNPDSGGVWAPCLSYADGQFWLIYSDIKVVDGPFKDGHNYLVTADAVDGEWSDPVRLNSSGFDPSLFHDPSGKKYVLNMLWDHREKHHSFAGIALQEYSVSEKKLVGERKVIFKGTPIKLTEAPHLYYINDVYYLLTAEGGTRYEHAATIARSSRIDGPYEVHPDNPILTAFHAPSHPLQKCGHASIVQTHTNEWYLAHLTGRPIHSSKESIFQQRGWCPLGRETAIQKLEWKDGWPYVVGGKEGLLEVEAPAMSVKEFSPTYHIVDEFKDSSLNRHFQTLRIPFTDQIGSVTENPHHLRLYGQESLTSKFTQAFVARRWQSFYFEAETAVSFFPKNFQQAAGLVNYYNTENWTALQVTYDDALGRILELSVCENLAFSQPLIKKIIIPDEIPYVYLKVTVQRETYTYSYSFDQQEWEKIDVPLESTHLSDDFIRGGGFFTGAFVGMQCQDTSGERLPADFKYFRYEETTE
For B1, in data set [1], the temperature optimum was determined as 35 °C. This molecule also yielded a pH optimum in data set [1] (35° C.) of around 7.5 pH. In addition, the “cleavage of cellobiose (CB-F17) in substrate cocktail” value in data set [2] is given as “no enzymatic cleavage of cellobiose”. In addition, in data set [3], the “cleavage of xylobiose (XB-F17) in substrate cocktail” value is reported as “conversion of xylobiose to xylose”.
